The test system of the series is MS2 coat protein. Description: apparent KD of MS2 coat protein; designed switch direction (-1 OFF switch, 1 ON switch): 1; higher = weaker reporter binding. A digest of the protocol:
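An oligonucleotide input, 200 uM small-molecule ligand, or no input was present during titration of SNAP-549-labelled MS2 coat protein, which was doubled from 0.7 or 1.5 nM to 3 µM. Designed RNA switches had been transcribed on Illumina chips by stalled E. coli RNA polymerase. Apparent KD per design is the median over clusters of curves fitted to normalised cluster fluorescence.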

Where [1] appears, read: input ligand: microRNA oligo, concentration not stated.
Where [2] appears, read: Eterna round: R95, input ligand: microRNA oligo, concentration not stated.
[3] abbreviates: Eterna round: R95, input ligand: FMN 200 uM.
Setting [4] is: Eterna round: R95, input ligand: none.

In the case of “AGCCGAGACACAGGAUAUAGAUGUUUACAUGAGGAUCACCCAUGUAGCAACACGUGGUAGUGAUUCUAGAAGGGUGCUCGGCGC [Omei SS(NG)2 Cv11] (Eterna round: R96, puzzle: Same State NG 2)”, the “apparent KD of MS2 coat protein” value runs as follows: (input ligand: FMN 200 uM) 0.0363 µM; under setting [1], 0.116 µM; (input ligand: none) 0.167 µM.

As to “AGCCGAGACUGAGGAUAUUUGAAUCUACAUGAGGAUCACCCAUGUAGCAACACGUGGUAGUGAUCGAAGAAGGCAGCUCGGCGC [MOD of Omei's SS(NG)2 Cv2] (Eterna round: R96, puzzle: Same State NG 2)”, the “apparent KD of MS2 coat protein” value (input ligand: FMN 200 uM) worked out at 0.0226 µM, the “apparent KD of MS2 coat protein” value under setting [1] turned out to be 0.0457 µM and the “apparent KD of MS2 coat protein” value (input ligand: none) came to 0.057 µM.

With “AGCGGAUAACAGUAGGAUAUGGCCAACGCCACAUGAGGAUCACCCAUGUCGUACCGGCACCUGGACUAGAAGGACUGCCUCCCGC [Ariscedi] (puzzle: Same State 2)”, the “apparent KD of MS2 coat protein” value under setting [2] was 0.0228 µM.

Regarding “AGCUAAAACGAAGGAUAUACAAACAUGAGGAUCACCCAUGUAUACAUGGUUUGUUGUGACCACAUGUAGAAGGUCGUACUAACA [SameState NG2 #18] (Eterna round: R96, puzzle: Same State NG 2)”, the “apparent KD of MS2 coat protein” value is, setting by setting: (input ligand: FMN 200 uM) 0.178 µM; under setting [1], 0.405 µM; (input ligand: none) 0.358 µM.

“AGCUAAAACGAAGGAUAUACAAACAUGAGGAUCACCCAUGUAUACAUGGUUUGUUGUGACUACAUGUAGAAGGUCGUACUAACA [SameState NG2 #17] (Eterna round: R96, puzzle: Same State NG 2)”: the “apparent KD of MS2 coat protein” value is, setting by setting: (input ligand: FMN 200 uM) 0.388 µM; under setting [1], 0.307 µM; (input ligand: none) 0.5 µM.

For the sequence “AGCUAGUACCGAGGAUAUACAUACAUGAGGAUCACCCAUGUAUACAUGAAUUUAUGAGACUACAUGUAGAAGGCGGUACUAGCA [JL SSNG2 1.21] (Eterna round: R96, puzzle: Same State NG 2)”, the “apparent KD of MS2 coat protein” value under setting [1] amounted to 0.0401 µM.

For “AGCUAGUACGAAGGAUAUACAAACAUGAGGAUCACCCAUGUAUACAUGGUUUAAUGAGACUACAUGUAGAAGGUCGUACUAGCA [SameState NG2 #13] (Eterna round: R96, puzzle: Same State NG 2)”, the “apparent KD of MS2 coat protein” value stood at 0.559 µM (input ligand: FMN 200 uM), 0.423 µM under setting [1] and 1.03 µM (input ligand: none).

With “AGCUAGUACGAAGGAUAUACAAACAUGAGGAUCACCCAUGUAUACAUGGUUUGAUGAGACUACAUGUAGAAGGUCGUACUAGCA [SameState NG2 #14] (Eterna round: R96, puzzle: Same State NG 2)”, the “apparent KD of MS2 coat protein” value under setting [1] came out at 0.176 µM.

With “AGCUAUCGAAAACGAUAGCAAAAGCAUGUACAUGAGGAUCACCCAUGUCAUGUACAAGCUUUUUGCUCGUCUUGAAA [Zipper 23 - 9] (Eterna round: R96, puzzle: Sensor for hsa-mir-208a)”, the “apparent KD of MS2 coat protein” value was 0.496 µM (input ligand: FMN 200 uM), 0.0166 µM under setting [1] and 0.824 µM (input ligand: none).

Take “AGCUAUCGAAAACGAUAGCAAAAGCAUGUACAUGAGGAUCACCCAUGUCAUGUACAAGCUUUUUGCUCGUCUUGAAA [Zipper 23 - 9] (puzzle: Sensor for hsa-mir-208a)”: the “apparent KD of MS2 coat protein” value was determined as 0.132 µM under setting [3], 0.013 µM under setting [2] and 1.39 µM under setting [4].

In the case of “AGCUAUCGAAAACGAUAGCAAAAGCAUGUACAUGAGGAUCACCCAUGUCAUGUACAAGCUUUUUGCUCGUUUUAAAA [Zipper 23 - 15] (puzzle: Sensor for hsa-mir-208a)”, the “apparent KD of MS2 coat protein” value turned out to be 0.0201 µM under setting [3], 0.0378 µM under setting [2] and 0.0525 µM under setting [4].

For “AGCUAUCGCGUACGAUAGCUGAAGCAUGUACAUGAGGAUCACCCAUGUCAUGUACAGGCUUUUUGCUCGUCUUAUUG [JL-shm-2.27 JL mod] (puzzle: Sensor for hsa-mir-208a)”, the “apparent KD of MS2 coat protein” value amounted to 0.77 µM under setting [3], 0.0164 µM under setting [2] and 0.625 µM under setting [4].

Consider “AGCUAUUAAUCAGGAUAUAGGGACAUGAGGAUCACCCAUGUGUACAUGAGUAAAUGUGAUCACGUCUAGAAGGGAUUACUAACA [SameState NG2 #38] (Eterna round: R96, puzzle: Same State NG 2)”, for which the “apparent KD of MS2 coat protein” value reads like this: (input ligand: FMN 200 uM) 0.184 µM; under setting [1], 0.0929 µM; (input ligand: none) 0.133 µM.

Take “AGCUAUUAAUCAGGAUAUAGUGACAUGAGGAUCACCCAUGUAUUGAUGAUUAAAUGUGGUCACCACUAGAAGGGAUUACUAACA [SameState NG2 #48] (Eterna round: R96, puzzle: Same State NG 2)”: the “apparent KD of MS2 coat protein” value reads like this: (input ligand: FMN 200 uM) 0.0232 µM; under setting [1], 0.0238 µM; (input ligand: none) 0.0269 µM.

For “AGCUAUUAAUCAGGAUAUAGUGACAUGAGGAUCACCCAUGUAUUGAUGAUUAAAUGUGGUCGCCGCUAGAAGGGAUUACUAACA [SameState NG2 #46] (Eterna round: R96, puzzle: Same State NG 2)”, the “apparent KD of MS2 coat protein” value was found to be 0.0352 µM (input ligand: FMN 200 uM), 0.0232 µM under setting [1] and 0.0307 µM (input ligand: none).

With “AGCUAUUAAUCAGGAUAUGGUCACAUGAGGAUCACCCAUGUAUAGAUGAUUGAAUGUGGUCUAAACUAGAAGGGAUUGCUAACA [SameState NG2 #57] (Eterna round: R96, puzzle: Same State NG 2)”, the “apparent KD of MS2 coat protein” value is 0.971 µM (input ligand: FMN 200 uM), 0.232 µM under setting [1] and 0.745 µM (input ligand: none).

Turning to “AGCUAUUAAUCAGGAUAUGGUGACAUGAGGAUCACCCAUGUAUAGAUGAUUAAAUGUGGUCUAAACUAGAAGGGAUUGCUAACA [SameState NG2 #55] (Eterna round: R96, puzzle: Same State NG 2)”, the “apparent KD of MS2 coat protein” value by setting is: (input ligand: FMN 200 uM) 0.214 µM; under setting [1], 0.247 µM; (input ligand: none) 0.219 µM.

Consider “AGGAAGGAGACUGAGGAUAUCGUUGAGAGGACAUGAGGAUCACCCAUGUGUAUAGGAUUGGAGAACGAGAAGGCAGAGGAGUGGG [JR_SS2_Sub047] (puzzle: Same State 2)”, for which the “apparent KD of MS2 coat protein” value under setting [3] was determined as 0.058 µM, the “apparent KD of MS2 coat protein” value under setting [2] was determined as 0.0762 µM and the “apparent KD of MS2 coat protein” value under setting [4] was 0.101 µM.

Turning to “AGGCUCAGACGAGGAUAUACGUGGUCACAUGAGGAUCACCCAUGUCUCGAGCUUCGGCUCGAGGCGUAGAAGGUGUCUGAGCCA [SSNG2/6-C1] (Eterna round: R96, puzzle: Same State NG 2)”, the “apparent KD of MS2 coat protein” value reads like this: (input ligand: FMN 200 uM) 0.195 µM; under setting [1], 0.406 µM; (input ligand: none) 0.609 µM.

For “AGGCUCAGACGAGGAUAUAUGCGAUCACAUGAGGAUCACCCAUGUCUCGAGCUUCGGCUCGAGGCAUAGAAGGCGUCUGAGCCA [SSNG2/4-A1] (Eterna round: R96, puzzle: Same State NG 2)”, the “apparent KD of MS2 coat protein” value reads like this: (input ligand: FMN 200 uM) 0.0164 µM; under setting [1], 0.0312 µM; (input ligand: none) 0.0384 µM.

Regarding “AGGCUCAGACGAGGAUAUAUGUCUCGAGCUUCGGCUCGAGACAUGAGGAUCACCCAUGUAAUAACAUAGAAGGUGUCUGAGCCA [SSNG2/1-C1] (Eterna round: R96, puzzle: Same State NG 2)”, the “apparent KD of MS2 coat protein” value by setting is: (input ligand: FMN 200 uM) 0.0491 µM; under setting [1], 0.208 µM; (input ligand: none) 0.253 µM.

On to “AGGCUCAGACGAGGAUAUAUGUGAUCACAUGAGGAUCACCCAUGUCUCGAGCUUCGGCUCGAGACAUAGAAGGUGUCUGAGCCA [SSNG2/3-C1] (Eterna round: R96, puzzle: Same State NG 2)”, for which the “apparent KD of MS2 coat protein” value stood at 0.0764 µM (input ligand: FMN 200 uM), 0.00303 µM under setting [1] and 0.0323 µM (input ligand: none).

As to “AGGCUCAGACGAGGAUAUGAUCAUGGCGCUUCGGCGCAUACAUGAGGAUCACCCAUGUAGGGUGAUCAGAAGGUGUCUGAGCCA [SSNG2/8-B1] (Eterna round: R96, puzzle: Same State NG 2)”, the “apparent KD of MS2 coat protein” value came to 0.0921 µM (input ligand: FMN 200 uM), 0.505 µM under setting [1] and 1.21 µM (input ligand: none).

Consider “AGGCUCAGACUAGGAUAUAUGCGAUCACAUGAGGAUCACCCAUGUCUCGAGCUUCGGCUCGAGGCAUAGAAGGAGUCUGAGCCA [SSNG2/4-D1] (Eterna round: R96, puzzle: Same State NG 2)”, for which the “apparent KD of MS2 coat protein” value (input ligand: FMN 200 uM) was 0.0171 µM, the “apparent KD of MS2 coat protein” value under setting [1] turned out to be 0.0308 µM and the “apparent KD of MS2 coat protein” value (input ligand: none) was 0.057 µM.

Consider “AGGCUCAGAGCAGGAUAUAUGUAAUAACAUGAGGAUCACCCAUGUGUCGAGCUUCGGCUCGACACAUAGAAGGGCUCUGAGCCA [SSNG2/2-B1] (Eterna round: R96, puzzle: Same State NG 2)”, for which the “apparent KD of MS2 coat protein” value runs as follows: (input ligand: FMN 200 uM) 0.0169 µM; under setting [1], 0.0288 µM; (input ligand: none) 0.0459 µM.

In the case of “AGGCUCGUGCUAGGAUAUCUAGGAUAUGGACGAGGAUUACCCGAGCAGCAUUAGCGCACCAGAGGAGAGAAGGAGCGACAUGCG [pwkr ssNG2 2F5 2FMN.11] (Eterna round: R96, puzzle: Same State NG 2)”, the “apparent KD of MS2 coat protein” value (input ligand: FMN 200 uM) turned out to be 0.00578 µM, the “apparent KD of MS2 coat protein” value under setting [1] was 0.00491 µM and the “apparent KD of MS2 coat protein” value (input ligand: none) worked out at 0.016 µM.

Turning to “AGGGAGGAAGCUGAGGAUAUCGUAAGGAGGACAUGAGGAUCACCCAUGUGUGUAGAAUUGGAGGACGAGAAGGCAGAGGAGUGGG [JR_SS2_Sub053] (puzzle: Same State 2)”, the “apparent KD of MS2 coat protein” value by setting is: under setting [3], 0.034 µM; under setting [2], 0.0213 µM; under setting [4], 0.037 µM.

Take “AGGUAACAUGAGGAUCACCCAUGUAAGGUGAACGUAGGAUAUCGAGGAGGUAGGGUAGGCCGAGAAGGACGAGGAG [JR_SS1_Sub093] (puzzle: Same State 1)”: under setting [2], the “apparent KD of MS2 coat protein” value was determined as 0.221 µM.

(Values after the supplement of paper PMC9170038.)
